Laboratory results: patent US20140245492

Biological target: ubiquitin

B1: MBP-AtAIRP2 (fusion of maltose-binding protein and Arabidopsis thaliana ABA Insensitive Ring Protein 2) (protein)
chain: MRKSFKDSLKALEADIQFANTLASEYPEEYDGGYVQMRLSYSPAAHLFLFLLQWTDCHFAGALGLLRILIYKAYVDGKTTMSLHERKTSIREFYDVLFPSLLQLHGGITDVEERKQKEICDKRYRKKDRTDKGKMSEIDLEREEECGICLEIRNKVVLPTCNHSMCINCYRNWRARSQSCPFCRGSLKRVNSGDLWIYTCSAEIADLPAIYKENLKRLLIYIDKLPLVTSDPNLVPYAPLPR
For B1, the “Self-Ubiquitination (in vitro, with UBA1, UBC8 and ubiquitin, 30° C. for 1 hour; Western blot using MBP- and ubiquitin-specific antibodies)” value was “the molecular weight of the AtAIRP2 protein was increased through Western blot using anti-MBP antibody, and the increase was induced due to ubiquitin”.
